In patent publication US8361967B2, “Beta sheet inhibiting peptides for preventing and/or treating Alzheimer's Disease” (Tianjin Medical University, priority 2008, dated 2013):
No end group written: not given here.

How the values were obtained:
[1] = target: T1, Aβ1-42 peptide (Homo sapiens, UniProt P05067); conditions: for ThT fluorescence intensity over time vs Aβ1-42 alone: 44.30 μmol/L with Aβ1-42 11.07 μmol/L, 37° C., 12 h to 7 d; for dose dependence of effect on Aβ fibril formation / most effective concentration for inhibition of Aβ fibril formation: 10-100 μmol/L with Aβ1-42 11.07 μmol/L; for dose dependence of effect on Aβ fibril formation / effect on Aβ1-42 aggregation and fibril formation (ThT, FIG. 2) / most effective concentration for inhibition of Aβ fibril formation / Inhibition (%) of Aβ aggregation: 37° C. for 24 h; for effect on Aβ1-42 aggregation and fibril formation (ThT, FIG. 2) / Inhibition (%) of Aβ aggregation: Aβ1-42 11.07 μmol/L, test substance 44.30 μmol/L; for most effective concentration for inhibition of Aβ fibril formation: dose-effect; for Inhibition (%) of Aβ aggregation: Aβ1-42 alone = 100% fluorescence
Method: 2. […] Each solution was incubated at 37° C. for 24 h, and 10 μl was taken out from each group and added into 990 μl of 3.0 μmol/L ThT phosphate buffer. ThT fluorescence intensity was measured at the excitation wavelength of 453 nm and emission wavelength of 478˜486 nm.
3. The dose-effect and time-effect relationships of the polypeptides of the invention on Aβ1-42: polypeptide H102 was formulated in PBS (as described above) to obtain a series of concentrations, and Aβ1-42 was added into the solutions to the concentration of 11.07 μmol/L. The resulted solutions were incubated at 37° C. for 24 hours, and samples were taken and measured for ThT fluorescence intensity, in order to determine the dose-effect relationship of the polypeptides of the invention on Aβ1-42. Solutions containing H102 of 44.30 μmol/L and Aβ1-42 of 11.07 μmol/L, or Vitamin E of 44.30 μmol/L and Aβ1-42 of 11.07 μmol/L, respectively, were incubated at 37° C. Samples were taken and measured for ThT fluorescence intensity at the time points of 12 hours (12 h), 1 day (1 d), 3 days (3 d), 5 days (5 d) and 7 days (7 d) after the incubation, in order to determine the time-effect relationships of various polypeptides on Aβ1-42.

[2] = target: T1, Aβ1-42 peptide; assay: Electron microscopy of Aβ1-42 fibril formation; format: biochemical; parameters: Reagents: Aβ1-42 (purity >98%); purchased Sigma-Aldrich, Inc; conditions: peptide 44.30 μmol/L with Aβ1-42 11.07 μmol/L, 37° C., 5 days; for length of formed Aβ fibrils: Aβ alone about 0.5 to 5 μm; for diameter of formed Aβ fibrils: Aβ alone about 8 to 10 nm
Method: 4. […] Samples of 5 μl were taken from each group, dropped onto a 300-mesh deionized copper mesh with carbon support film, and left to stand at room temperature for 15 min. The samples were negatively stained in dark by 2% uranyl acetate for 2 min. After drying, the samples were observed under a transmission electron microscope.

[3] = system: human neuroblastoma SH-SY5Y cells; assay: Cytotoxicity test (MTT): viability of SH-SY5Y cells incubated with Aβ1-42; format: cell-based; conditions: 72 hours
Method: 5. Cytotoxicity test: a commonly-used cell line, human neuroblastoma SH-SY5Y, was used in the assay of cytotoxcity, which was purchased from Xuanwu Hospital of Capital Medical University and cultured in MEM medium (supplemented with 10% (v/v) fetal bovine serum) by conventional methods, in a 37° C., 5% CO2 incubator. The cell line was subcultured once every 5 days. When the SH-SY5Y cells grew stably in the logarithmic phase, the cells were inoculated into a 96 well plates (Costar) in a density of 1.0×10^4/ml, with 200 μl of medium added per well. After 24 hours, the medium was replaced by serum-free medium, and Aβ1-42 was added to the concentration of 5 μmol/L. The wells were divided into several groups. […] At 72 hours after the addition of the polypeptides, 20 μl of 3-(4,5-dimethyl-2-thiazolyl)-2,5-diphenyltetrazole bromide (MTT) (5 mg/ml) was added into each well, and the plate was incubated at 37° C. for 4 hours. Then the original culture medium was discarded, and 200 μl of DMSO was added into each well. The plate was left to stand for 10 min and then shaken for 1 min, allowing the Formazane particles to be completely dissolved. Then the optical density (OD) at 492 nm was measured on an automatic microplate reader.

[4] = system: APP 695 transgenic mice; assay: Immunohistochemical staining of hippocampal CA1 neurons (anti-APP N-terminal and anti-Aβ antibody) in APP 695 transgenic mice; format: in vivo; conditions: intracerebroventricular 3 μl of 40 μmol/L daily for 10 days
Excerpt: (§1) Experimental animals: thirty APP 695 transgenic mice of nine-month-old and ten C57BL/6J mice which are matched in genetic background and age, were all purchased from the experimental animal research center of Peking Union Medical College, Chinese Academy of Medical Sciences.
(§2) Animal grouping and model preparation: the thirty APP 695 transgenic mice were randomly divided into model group of 15 mice and the polypeptide-injected group of 15 mice. Ten C57BL/6J mice were used as a normal control group. For the polypeptide-injected group, the animals were received intracerebroventricular injection of 3 μl of saline solution containing H102 of 40 μmol/L each time. For the control group and model group, the animals were received intracerebroventricular injection of 3 μl of normal saline solution each time. The injection was carried out daily for 10 days. All animals were kept in the same conditions in SPF-grade mice room in the experimental animal research center of Tianjin Medical University
(§3) The animals were anaesthetized intraperitoneally by 10% chloral hydrate at a dose of 400 mg/Kg weight. The animals were fixed on a brain stereotaxic frame, and the hair was cut off. After disinfection with Anerdian, the skin was incised along the midline of the head for about 1 cm. The periosteum was stripped to expose the bone marks. […]

[5] = system: APP 695 transgenic mice; assay: Congo Red staining of amyloid plaques in temporal cortex and hippocampus of APP 695 transgenic mice; format: in vivo; conditions: intracerebroventricular 3 μl of 40 μmol/L daily for 10 days
Excerpt: as §1, §2, §3

Substance	T1/2, time point at which the fluorescence intensity reaches the half-peak [1]	ThT fluorescence intensity over time vs Aβ1-42 alone [1]	dose dependence of effect on Aβ fibril formation [1]	effect on Aβ1-42 aggregation and fibril formation (ThT, FIG. 2) [1]	most effective concentration for inhibition of Aβ fibril formation [1]	length of formed Aβ fibrils [2] [μm]	diameter of formed Aβ fibrils [2] [nm]	effect on viability of SH-SY5Y cells ([3]; 10, 20 and 40 μmol/L with Aβ1-42 5 μmol/L)	optimal concentration to improve the viability of cells ([3]; Aβ1-42 5 μmol/L) [µmol/L]	amount of Aβ1-42 positive cells in brain CA1 area vs model group [4]	amyloid plaques (Congo red) vs transgenic model group [5]	Inhibition (%) of Aβ aggregation [1] [%]
HKQLPFFEED [H102]	fourth day	significantly weaker at each time point	dose-dependent	remarkably inhibit	about 20 μmol/L	0.3 to 3	3 to 6	most effective to improve the viability of cells	20	much lower than that of the model group	much lower in the number and size	–
Vitamin E	fourth day	significantly weaker at each time point	dose-dependent	remarkably inhibit	about 20 μmol/L	–	–	–	–	–	–	24.85
Leu-Pro-Phe-Phe-Asp (LPFFD; printed: Leu-Pro-Phe-Phe-Asp) [L5, reference compound]	–	–	–	–	–	0.3 to 5	4 to 8	–	–	–	–	25.74
